Measurements reported in patent publication US20260028405A1 (ICAHN SCHOOL OF MEDICINE AT MOUNT SINAI, published 2026).
One block for each binder: values may come before it.

B3: biotinylated human CD64 protein (receptor, UniProt P12314 16-288, looked up)
chain: QVDTTKAVITLQPPWVSVFQEETVTLHCEVLHLPGSSSTQWFLNGTATQTSTPSYRITSASVNDSGEYRCQRGLSGRSDPIQLEIHRGWLLLQVSSRVFTEGEPLALRCHAWKDKLVYNVLYYRNGKAFKFFHWNSNLTILKTNISHNGTYHCSGMGKHRYTSAGISVTVKELFPAPVLNASVTSPLLEGNLVTLSCETKLLLQRPGLQLYFSFYMGSKTLRGRNTSSEYQILTARREDSGLYWCEAATEDGNVLKRSPELELQVLGLQLPTP
modifications: biotinylated
notes: also called human Fc receptor CD64

Key:
[1] = target: human CD16a on cells (primary NK cells; engineered reporter cells) (human, UniProt P08637 17-254); test: cell-based or functional assay
[2] = target: T1, human CD16a protein (human, UniProt P08637 17-208, biotinylated in the bead assay (FIG. 4B, 4C)); test: ELISA on human CD16a
T1 construct: construct not described; also called biotinylated CD16a; FcγRIIIa

[3] = target: B3; test: ELISA, immobilised antibody detected with biotinylated human CD64
Method: (§1) FIGS. 7A, 7B, and 7C illustrate the properties of chF9H4-DANA, a chimeric antibody in which the variable and the CH1 region of F9H4 is fused to the CH2 and CH3 regions of hIgG1 comprising a D265A N297A (DANA) mutation (labeled as “F9H4-hIG1-DANA” in FIGS. 7A, 7B, and 7C). FIG. 7A. The indicated antibodies were immobilized in ELISA plates and detected by biotinylated human CD64 protein, which was added in the indicated concentrations. Highest absorbance for hIgG wild type. FIG. 7B. ELISA for reactivity of antibodies against human CD16a. Highest absorbance for F9H4-hIG1-DANA. FIG. 7C. Inhibition of CD16a shedding assay with primary NK cells that were treated with 30 ng/mL PMA to induce CD16a shedding. Highest absorbance for F9H4-hIG1-DANA. Data represent three independent experiments (FIGS. 7A, 7B, and 7C) and mean+/−SD of triplicates even though the SD bars are so small that cannot be seen (FIG. 7C).

[4] = target: T2, hIgG wild type; test: as above
T2 construct: it may be the same as hIgG1
Method: as §1

[5] = target: T1, human CD16a protein; test: ELISA on human CD16a protein
[6] = target: T3, recombinant CD16a D2 domain (UniProt P08637 107-208, limits assumed); test: ELISA, immobilised CD16a D2 domain [panel D2]
T3 construct: domain: D2
Method: FIGS. 4A, 4B, 4C, 4D, 4E, and 4F illustrate the characterization of F9H4. FIG. 4A. An ELISA was performed with immobilized F9H4 or the positive controls, respectively. For detection, biotinylated antibodies against the indicated subclasses of murine IgG were used. From left to right: Anti-mIgG1, anti-mIgG2a, anti-mIgG2b, anti-mIgG3. FIG. 4B. Validation of a bead assay to assess CD16a binding to hIgG1. […] Two left peaks (overlapping): uncoated and DANA mutant. Right peak: hIgG1. FIG. 4C. Bead assay for CD16a binding to hIgG1. hIgG1-coated beads were incubated with 1 μg/mL biotinylated CD16a plus the indicated antibodies, followed by incubation with PE-labelled streptavidin and analysis by flow cytometry. Peaks from left to right: 30, 10, 3, and 1 μg/mL. FIG. 4D. Jukart cells were engineered to express human CD16a and luciferase in response to CD16a engagement. Cells were treated overnight with the indicated antibodies, followed by addition of luciferin and analyses in plate reader. […] Data represent two (FIG. 4D) or three (FIGS. 4A, 4B, 4C, and 4F) independent experiments, are mean+/−SE of quadruplicates (FIG. 4 D), and were analyzed by non-linear regression (FIGS. 4D and 4F).
To shed light into the mechanism by which F9H4 inhibit the cleavage, the two immunoglobulin-like domains, D1 and D2 of CD16a were examined. […] It was determined by ELISA that F9H4 binds full length CD16a and D1, but not D2. […]

T1 sequence (P08637 17-208 limits assumed): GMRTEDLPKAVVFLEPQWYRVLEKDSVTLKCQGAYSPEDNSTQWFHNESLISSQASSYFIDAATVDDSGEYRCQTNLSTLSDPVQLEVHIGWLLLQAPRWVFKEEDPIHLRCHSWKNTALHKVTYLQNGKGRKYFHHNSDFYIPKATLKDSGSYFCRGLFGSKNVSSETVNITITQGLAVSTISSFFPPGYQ
human CD16a on cells (primary NK cells; engineered reporter cells), sequence (P08637 17-254, change not shown): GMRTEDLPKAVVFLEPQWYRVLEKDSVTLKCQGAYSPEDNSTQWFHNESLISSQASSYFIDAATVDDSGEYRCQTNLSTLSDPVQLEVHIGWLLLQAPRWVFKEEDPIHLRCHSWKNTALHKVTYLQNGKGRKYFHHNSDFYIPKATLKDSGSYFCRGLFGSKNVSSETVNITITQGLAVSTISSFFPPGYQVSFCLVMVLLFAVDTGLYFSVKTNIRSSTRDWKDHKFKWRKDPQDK
T3 sequence (P08637 107-208 limits assumed): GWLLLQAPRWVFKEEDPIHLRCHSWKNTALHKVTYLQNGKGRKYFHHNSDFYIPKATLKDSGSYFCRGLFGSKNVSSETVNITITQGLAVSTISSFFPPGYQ

B1: anti-CD16a antibody 3G8 (antibody)
chain 1: QVTLKESGPGILQPSQTLSLTCSFSGFSLRTSGMGVGWIRQPSGKGLEWLAHIWWDDDKRYNPALKSRLTISKDTSSNQVFLKIASVDTADTATYYCAQINPAWFAYWGQGTLVTVS
chain 2: DIVLTQSPASLAVSLGQRATISCKASQSVDFDGDSFMNWYQQKPGQPPKLLIYTTSNLESGIPARFSASGSGTDFTLNIHPVEEEDTATYYCQQSNEDPYTFGGGTKLELK
EC50 (read off the curve), luciferase reporter of CD16a engagement (RLU) [1]: ~0.1 mg/L

Binder: B3
EC50 (read off the curve) [4]: ~0.006 mg/L

Next, values leading:

EC50 (read off the curve) [2]: ~0.04 mg/L
binding result [3]: no binding (tested: 1 µg/mL)
B2: chF9H4-DANA, chimeric F9H4 with hIgG1 CH2-CH3 carrying D265A N297A (antibody)
heavy: QVQLQQPGSELVRPGASVKLSCKASGYTFTSYWMHWVKQRHGQGLEWIGNIYPGSGSTNYDEKFKSKGTLTVDTSSSTAYMHLGSLTSEDSAVYYCTMRYGGYYGYYFDYWGQGTTLTVSSAKTTAPSVYPLAPVCGDTTGSSVTLGCLVKGYFPEPVTLTWNSGSLSSGVHTFPAVLQSDLYTLSSSVTVTSSTWPSQSITCNVAHPASSTKVDKKIEPRGPTIKPCPPCKCPAPELLGGPSVFLFPPKPKDTLMISRTPEVTCVVVAVSHEDPEVKFNWYVDGVEVHNAKTKPREEQYASTYRVVSVLTVLHQDWLNGKEYKCKVSNKALPAPIEKTISKAKGQPREPQVYTLPPSRDELTKNQVSLTCLVKGFYPSDIAVEWESNGQPENNYKTTPPVLDSDGSFFLYSKLTVDKSRWQQGNVFSCSVMHEALHNHYTQKSLSLSPGK
light: EIVLTQSPTTMAASPGEKITITCSTTSSISSNYLHWYQQKPGFSPKLLIYRTSNLASGVPARFSGSGSGTSYSLTIGTMEAEDVATYYCQQGSSIPLTFGAGTKLELKRADAAPTVSIFPPSSEQLTSGGASVVCFLNNFYPKDINVKWKIDGSERQNGVLNSWTDQDSKDSTYSMSSTLTLTKDEYERHNSYTCEATHKTSTSPIVKSFNRNEC
notes: also called chF8H4-DANA; F9H4-hIG1-DANA; copies: 2 + 2

EC50 (read off the curve) [5]: ~0.001 mg/L
binding result [6]: no binding (tested: 10 µg/mL)
B4: anti-CD16a antibody F9H4 (antibody, V domains shown)
VH: QVQLQQPGSELVRPGASVKLSCKASGYTFTSYWMHWVKQRHGQGLEWIGNIYPGSGSTNYDEKFKSKGTLTVDTSSSTAYMHLGSLTSEDSAVYYCTMRYGGYYGYYFDYWGQGTTLTVSS
VL: EIVLTQSPTTMAASPGEKITITCSTTSSISSNYLHWYQQKPGFSPKLLIYRTSNLASGVPARFSGSGSGTSYSLTIGTMEAEDVATYYCQQGSSIPLTFGAGTKLELKR
notes: also called F9H14
